Experimental data as given in the DeepSol protein solubility set.

assay: soluble on expression in E. coli; label from the status in PepcDB or PDB records

Sequence | soluble on expression in E. coli
SMGNPQLISAGAKFRAAVAAEQPLQVVGAITAYAAKMAEAVGFKAVYLSGGGVAANSLGIPDLGISTMDDVLVDANRITNATNLPLLVDIDTGWGGAFNIARTIRSFIKAGVGAVHLEDQVGQKRCGHRPGKECVPAGEMVDRIKAAVDARTDETFVIMARTDAAAAEGIDAAIERAIAYVEAGADMIFPEAMKTLDDYRRFKEAVKVPILANLTEFGSTPLFTLDELKGANVDIALYCCGAYRAMNKAALNFYETVRRDGTQKAAVPTMQTRAQLYDYLGYYAYEEKLDQLFNQGRN | soluble
MKKKKLFLGTIISCVVLALSACGSSDNVVTSKVGNITEKELSKELRQKYGESTLYQMVLSKALLDKYKVSDEEAKKQVEEAKDKMGDNFKSTLEQVGLKNEDELKEKMKPEIAFEKAIKATVTEKDVKDNYKPEMKVSHILVKDEKTAKEVKEKVNNGEDFAALAKQYSEDTGSKEQGGEITGFAPGQTVKEFEEAAYKLDAGQVSEPVKTTYGYHIIKVTDKKELKPFDEVKDSIRKDIEQQRLQDTTGKWKQQVVNELLKDADIKVNDKEFKNTFEFLEKK | not soluble
MSLPRGLELLIAQTILQGFDAQYGRFLEVTSGAQQRFEQADWHAVQQAMKNRIHLYDHHVGLVVEQLRCITNGQSTDAAFLLRVKEHYTRLLPITRASRLRRAFLTPCTVGYLTTARLLPSGFLSLALSQSAAFVPFPPAGQRLSPRSRLGISTDARYQRPTAAPAWQNKSRDIHYIIRHLTETLGTDNLAESHLQVANELFYRNKAAWLVGKLITPSGTLPFLLPIHQTDDGELFIDTCLTTTAEASIVFGFARSYFMVYAPLPAALVEWLREILPGKTTAELYMAIGCQKHAKTESYREYLVYLQGCNEQFIEAPGIRGMVMLVFTLPGFDRVFKVIKDRFAPQKEMSAAHVRACYQLVKEHDRVGRMADTQEFENFVLEKRHISPALMELLLQEAAEKITDLGEQIVIRHLYIERRMVPLNIWLEQVEGQQLRDAIEEYGNAIRQLAAANIFPGDMLFKNFGVTRHGRVVFYDYDEICYMTEVNFRDIPPPRYPEDELASEPWYSVSPGDVFPEEFRHWLCADPRIGPLFEEMHADLFRADYWRALQNRIREGHVEDVYAYRRRQRFSVRYGEMLFEGHHHHHH | not soluble
VTDVLLCVGNSMMGDDGAGPLLAEKCAAAPKGNWVVIDGGSAPENDIVAIRELRPTRLLIVDATDMGLNPGEIRIIDPDDIAEMFMMTTHNMPLNYLIDQLKEDIGEVIFLGIQPDIVGFYYPMTQPIKDAVETVYQRLEGWEGNGGFAQLAVEEE | soluble
MSFIKTFSGKHFYYDKINKDDIVINDIAVSLSNICRFAGHLSHFYSVAQHAVLCSQLVPQEFAFEALMHDATEAYCQDIPAPLKRLLPDYKRMEEKIDAVIREKYGLPPVMSTPVKYADLIMLATERRDLGLDDGSFWPVLEGIPATEMFNVIPLAPGHAYGMFMERFNDLSELRKCA | soluble
MKRGEELPPLEIEVTRTLIVAGAIASRDYQDVHHDAESARRRGSPDIFMNILTTNGLVGRYITDHFGPGAVLRKVAIRLGAPNYPGDTMVLTGTVVEVEGDTATVKVIGANGIGTHVRGTVTVTVPPGSASLEHHHHHH | not soluble
QVQLQQSGPELVKPGALVKISCKASGYTFTNYDINWVKQRPGQGLEWIGWIYPGDGSTMYNEKFKGKATLTADKSSSTAYMQLSSLTSENSSVYFCARLDGNYGGWFAYWGQGTSVTVSSAKTTPPSVYPLAPVCGDTTGSSVTLGCLVKGYFPEPVTVTWNSGSLSSGVHTFPAVLQSDLYTLSSSVTVPSSTWPSETVTCNVAHPASSTKVDKKIVP | soluble
MRVSGSASSQDIISRINSKNINNNDSNEVKRIKDALCIESKERILYPQNLSRDNLKQMARYVNNTYVHYSGNCVLLSACLHYNIHHRQDILSSKNTASPTVGLDSAIVDKIIFGHELNQSYCLNSIDEVEKEILNRYDIKRESSFIISAENYIAPIIGECRHDFNAVVICEYDKKPYVQFIDSWKTSNILPSLQEIKKHFSSSGEFYVRAYDEKHD | not soluble
QTPPRLVAIGGLSGSGKTTIAEALAAHVGAPPGARIVESDRIRKAMHGVPAETRLPDNAYRPDVSDRVYNEMTWRAGLILSEGGSVVADAVFDRPADRERIEKAARDRGIPFFGFWLEADPLVLWQRVSERKGGPSDATVDILSRQLQRKAG | not soluble
MIMQEIFLCSISNVRSGDCKEDCAYCTQSSHHQGAIKRYKFKDEKVVLQEARALRQLGALGFCLVTSGRELDDEKCEYIAKLAKAINQEELGLHLIACCGRADLEQLEFLRDAGIHSYNHNLETSQNFFPKICSTHTWEERFITCENALRAGLGLCSGGIFGLNESWEDRIEMLRALASLSPHTTPINFFIKNPVLPIDAETLSADEALECVLLAKEFLPNARLMVAGGREVVFKDNDKKEAKLFEYGINAVVLGDYLTTKGKAPKKDIEKLLSYGLTMATSCHLEHHHHHH | not soluble
AYPHIFGNLGVFSLASWFSERDFLRFLNHHPLDKNSKVFIQVGTKEGDAVDDEFAPNMNQAYIDCTLHYYQSLLRTGHPMEHIDLHIMANEIHHEKYWANHFIEFLKFTLK | not soluble
MAEKLSAHCHCGAVAFTVELSDGFNTVRRCNCSYCRMRGAVAVSSPRSGIEVVRGGDKLTEYRFNTGEAVHFFCSVCGIYTFHQRRSNPQQYGVNVACIDGVSPFDFP | not soluble
MYVCHFENCGKAFKKHNQLKVHQFSHTQQLPYECPHEGCDKRFSLPSRLKRHEKVHAGYPCKKDDSCSFVGKTWTLYLKHVAECHQD | soluble
MADTGEVQFMKPFISEKSSKSLEIPLGFNEYFPAPFPITVDLLDYSGRSWTVRMKKRGEKVFLTVGWENFVKDNNLEDGKYLQFIYDRDRTFYVIIYGHNMCSEYRDFPQVAVEVDDYENGEEEEDGDDQDKHQ | soluble
MAHHHHHHMKGHIFYDVTEKGTPPAEYFVSSTGWGMSVVSPPNVGNCDEWETQVKAERIIVNCPDEMDVKAMCAWMERDGTTDGQAECWKMVEERMDKVGPIPRHIFDANKFVAHSAAIEDALDGINSRDGERHFTHRGVRLWYSGDPPQKVVSVVRARGEFGAGGFLNAAISVCLGRRIAHYFGGRDE | not soluble
MPLEASELKPTAGPLEASELKPTAGPLEASELKPTAGPLEASELKPTAGPLEASELKPTAGPLEASELKPTAGPLEASELKPTAGMEKTKKIAVMSGKGGVGKTTVAVNLAVALAAEGYQVGLLDLDLHGPNVQRMLGVSLPPSEGEKIVPAKYGDSLKVFSLAMILQEGAPVIWRGPLKHKAIEQLTRDVEWGDLDYLICDLPPGTGDEALSTFQIIKPDAVIVVSTPQKVAGDDVRRAINFVKRLSGKILGLVENMSYLVCPNCGEKIYVFGKGETEKLAEEFGIPLIARIPMDPEVVSLSDEGRPAVVYKRGTVIEEEFKKIVEKVLSLLEHHHHHH | not soluble
MKPVSGSFSGYHPMATVSEQPVAKPRASESPQSESIEERPACLAPVAGAGQPLPGASSSLSAYLLLRRLDHRPVSQEGINALTPADEAVVEARNALPFGRGNVGVDAQKTDLESSIRTRSVMRLTRDAEAAGHTPMRGVDADMNWNVLVAMSGRIFGAGNCREHARIASFAYGGLAQESGRSSEEKIHLATKAGVDHVWVETDHPDADSSPMVIDPWANGSAILAEDSRFAKDRSAVTRTDTFDLSLAAEAGQIAKATAEEALAHTQGRLQQRLASERPDAVPLESGRYREEVSVLDDTFARRVGQKVNTADPRGMLNVELEAVGVAMSLGGEGVKPLTQEASQIVEKAKKFASPGGMPRDA | not soluble
MGSDKIHHHHHHMTTDILNISEEQLVDYSKAHNEPSWMTELRKKALKLTETLEMPKPDKTKLRKWDFDSFKQHDVKGDVYQSLSQLPESVREIIDVDHSKNLVIQHNNTIAYTQVDDNASKDGVIVEGLADALMNHSDLVQKYFMKDAVTVDEHRITALHTALVNGGVFVYVPKNVVVEHPVQYVVLHDDENASFYNHVIIVTEESAEVTYVENYLSNASGEGNQLNIISEVIAGANSNITYGSVDYMDKGFTGHIIRRGITEADASINWALGLMNEGSQIIDNTTNLFGDRSTSSLKSVVIGTGEQKINLTSKIVQYGKETDGYILKHGVMKEHASSVFNGIGYIKHGGTKSIANQESRVLMLSEHARGDANPILLIDEDDVQAGHAASVGRVDPDQLYYLMSRGISQREAERLVIHGFLDPVVRELPIEDVKRQLREVIERKVSK | not soluble
MGSDKIHHHHHHMIIFFQLSSPYLLDIYHLDILYGMSFIKAIIKKMSGGVLLKIIDTVPFFLKYYESSLAFLKHYYSQYPKIFNEYFAYHCKDTEERHDQSLAKYPESLLAIQQVRRAIIPIIEEVVEEYGRLYQVTFPTEVNLIVGGYGSNAYTHRQIIPDVTFALERLSPKVEHLQAIVAHDFGHVAHNILSSEAGMDWGKVQWDSPLIWLYQEGAAIHFSRQIAPQLPPAMYFSFDAEGEEWLRFFKENTHAVKSAFAHDYVQETSQSMFQEWFSINGGKRFGYNRLGYLVGDLLFQHFTKTKGERNAITAWKEGRFREEVERWFKR | not soluble
MGHHHHHHSHMGTNDEDELSLGLPTELKRKKEQLDGGHRPSKETQSAAGLTLPLNSDQTFHLMSNLAGDVITAAVTAAIKDQLEGVQQALSQAAPIPEEDTDTEEGDDFELLDQSELDQIESELGLTQDQEAEAQQNKKSSGFLSNLLGGH | soluble
GMAGAAHRLMEARMRRYDNKFARISDIDINQPESWRGRIFLTFDIDWAADFVLQDTIDLIEGAGVCATWFATHSTPLLENIRRNPLFELGVHPNFNPLLAGAHAEGVQEILDRTLELAPGCVSVRSHSLVQATSILNMFGERRLRYDCNILVPWDAGIVLQPWRHWTGDMVRVPYLWEDDVACLYDWEFDSTFDYWYQPDGINVLDFHPIHVYMNTESLRRYEDSREVHRNPVDLIRWRNTSAGSRTFLQSLLARNI | soluble
MICSLFVDKVNKETYLCAMKQEYISRIRSFNRYYTKILGILNKYYLGSELGLPEVRIIQDVYLHPDRSSKDISNELNMDKGLLSRLLKQLEQKEYIFRKSTEKDNRMGLVNLTEKGCEVYYRLNTAANQSIERIFSHLEDRQLQRLVHCMDSIYKIINSVETGLTVDNNEPIVIRPIEESDNASIASVLRASVEEHGAPKVGTFYDDPHTDRMFQTFNIKGAEYWIVESNGVILGGGGFYPTKGLPHGYAELSKFHFRPELRGRGIGKRLLQFIEQRAVSAGYVYMYIVSYHQFGNAVSMYEKYGYEHIDNALDQSGLYQDAPFHMVKAL | not soluble
MSLQLPISQYNELLQKKLEKLTALLHPFNAPDIQVFDSPTSHYRMRAEFRIWHEQDDFYHIMFDQATLQRYRVDEFPIASMLINRMMQTLLPLLKQQEVLHKKLFQIDYLSTLSNKIIVSLLYHKTLTEEWESAAKNLKDLLEKQDFDVQIIGRASKQKICFEQDYVDEVLPVNGRNYVYRQVENSFTQPNATVNCKMLEWAIDCTQNSEGDLLELYCGNGNFSIALAQNFRKVLATEIAKPSVAAAQFNIAENKVDNLQIIRMSAEEFTQAMNGVRAFNRLKGIDLKSYECNTIFVDPPRAGLDPDTVKLVQNYDRILYISCNPHTLCDNLVELSKTHRIEKAALFDQFPYTDHMESGLWLIRKEGHHHHHH | soluble
MAPKCWSNLPSDVKREVLEHGDCQQWFNVRLCSRADMNLVDSLKLRIPFLKIQISNTTFSIIIVESPSAILRIDLHQKSGGNAEFSVEIFKNSDLELGNLIKTIENTTLDAEISNLLEKSIFHRKIDIATCQIQADGLQAENPVLAMIHAKFTENAPKKLIFSGKSMEENRFLAKFFENLNIDFVFRSWRKDLSREWGEGMNHLRIKIFEVSKWTTLLGDFEHFTAYDEIEPVMYMARILSRPMKRSHWFPGFHVPVAERLFRQIFRQEMFEKFENHSIRKSPINLKLWIFVKFTKCGISIFVGDPKDFNERDGTCDLEWMCPNCAPKTMENWFFRETIGKLHF | not soluble
